# B1: R10-6A11QH (antibody, human IgG1, kappa, V domains shown)
# VH: QVKLEESGPGILQPSQTLSLTCSFSGFSLSTSGMGVSWIRQPSGKGLEWLAHIYWDDDKNYNPSLKSRLTISKDTSRNQVFLKITSVDTADTATYYCARKIYYDYDYALDYWGQGTSVTVSS
# VL: DIVMTQAAFSNPVTLGTSASISCRSSKSLLHSNGITYLCWFLQKPGQSPQLLIYQMSNLASGVPDRFSGSGSGTDFTLRISRVEAEDVGVYYCAQNLELWTFGGGTKLEIKR
# notes: also called chimeric antibody of R10-6A11
# B2: R1-11C3QH (antibody, human IgG1, kappa, V domains shown)
# VH: EVQLEESGAELVRSGASVKLSCTASGFNIKDYYMHWVKQRPEQGLEWIGWIDPENGDTEYAPKFQGKATLTADTSSNTAYLQLSTLTSEDNAVYYCNAAYYGDYVEDMDYWGQGTSVTVSS
# VL: DIVMTQTPLSLSVSLGDQASISCRSSQSIVHSDGNTFLEWYLQKPGQSPKLLIYKVSNRFSGVPDRFSGSGSGTDFTLKISRVEAEDLGVYYCFQASHLPRTFGGGTKLEIKR
# notes: also called chimeric antibody of R1-11C3
# Columns and labels:
# [1] = target: RSV-F protein of RSV A2 virus (as carried by the live virus in the neutralisation assay) (human respiratory syncytial virus, …, UniProt P03420 26-574); experiment: cell-based or functional assay
# RSV-F protein of RSV A2 virus (as carried by the live virus in the neutralisation assay), sequence (P03420 26-574): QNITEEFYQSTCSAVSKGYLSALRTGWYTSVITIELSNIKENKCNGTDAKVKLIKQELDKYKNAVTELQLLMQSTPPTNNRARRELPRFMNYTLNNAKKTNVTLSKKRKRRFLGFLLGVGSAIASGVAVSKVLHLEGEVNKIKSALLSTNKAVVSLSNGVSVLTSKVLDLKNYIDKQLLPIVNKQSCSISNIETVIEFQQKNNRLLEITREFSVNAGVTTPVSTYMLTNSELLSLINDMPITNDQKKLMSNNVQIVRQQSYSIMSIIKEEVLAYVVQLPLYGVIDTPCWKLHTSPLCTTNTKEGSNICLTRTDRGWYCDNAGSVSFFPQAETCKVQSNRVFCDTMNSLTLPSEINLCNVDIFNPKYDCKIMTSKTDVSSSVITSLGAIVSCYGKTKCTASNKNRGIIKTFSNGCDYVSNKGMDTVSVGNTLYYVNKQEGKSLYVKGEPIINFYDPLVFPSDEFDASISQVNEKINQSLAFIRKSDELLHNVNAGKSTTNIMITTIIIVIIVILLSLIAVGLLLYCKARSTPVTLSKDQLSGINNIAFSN
# [2] = target: RSV-F protein of RSV A Long virus (as carried by the live virus in the neutralisation assay) (human respiratory syncytial virus, …, UniProt P12568 26-574); experiment: cell-based or functional assay
# [3] = target: RSV-F protein of RSV B9320 virus (as carried by the live virus in the neutralisation assay) (human respiratory syncytial virus, …); experiment: cell-based or functional assay
# [4] = target: T1, recombinant RSV-F protein (RSV A2 strain fusion (F) protein with added His tag) (human respiratory syncytial virus, A2 …, UniProt P03420 26-524); experiment: SPR (Biacore), antibody captured, RSV-F as analyte
# T1 construct: also called RSV-F recombinant protein
# T1 sequence (P03420 26-109, chain 1 of 2): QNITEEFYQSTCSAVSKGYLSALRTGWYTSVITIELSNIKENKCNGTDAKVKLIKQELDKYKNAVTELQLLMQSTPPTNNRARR
# T1 sequence (P03420 137-524, chain 2 of 2): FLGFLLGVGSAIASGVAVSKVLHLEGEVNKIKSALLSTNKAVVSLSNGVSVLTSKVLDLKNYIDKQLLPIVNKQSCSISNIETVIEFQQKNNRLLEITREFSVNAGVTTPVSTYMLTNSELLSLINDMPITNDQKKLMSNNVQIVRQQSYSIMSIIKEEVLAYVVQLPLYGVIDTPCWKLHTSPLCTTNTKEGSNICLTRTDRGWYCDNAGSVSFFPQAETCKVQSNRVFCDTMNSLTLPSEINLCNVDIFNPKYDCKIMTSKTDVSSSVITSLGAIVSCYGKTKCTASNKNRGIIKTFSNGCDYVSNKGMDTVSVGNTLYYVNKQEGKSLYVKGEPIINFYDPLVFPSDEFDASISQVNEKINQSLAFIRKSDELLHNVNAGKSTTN
Binder,"Absolute IC50, neutralizing RSV A2 (HEp-2 cells, indirect ELISA) [1]","Absolute IC50, neutralizing RSV A Long (HEp-2 cells, indirect ELISA) [2]","Absolute IC50, neutralizing RSV B9320 (HEp-2 cells, indirect ELISA) [3]",koff [4],kon [4],Kd [4]
B1,0.00745 µg/mL,0.0199 µg/mL,0.266 µg/mL,0.000339 s⁻¹,1.03e+06 M⁻¹ s⁻¹,
B2,0.118 µg/mL,0.316 µg/mL,0.0666 µg/mL,1.41e-05 s⁻¹,549000 M⁻¹ s⁻¹,0.0256 nM
